# Reference: patent US20230346938A1 (Memorial Sloan Kettering, published 2023)
# T1: soluble CD19-HSA fusion protein (CD19 extracellular domains fused to human serum albumin) (human, UniProt P15391 20-291)
# T1 construct: extracellular domain; also called recombinant CD19 antigen; not shown: human serum albumin
# T1 sequence (looked up): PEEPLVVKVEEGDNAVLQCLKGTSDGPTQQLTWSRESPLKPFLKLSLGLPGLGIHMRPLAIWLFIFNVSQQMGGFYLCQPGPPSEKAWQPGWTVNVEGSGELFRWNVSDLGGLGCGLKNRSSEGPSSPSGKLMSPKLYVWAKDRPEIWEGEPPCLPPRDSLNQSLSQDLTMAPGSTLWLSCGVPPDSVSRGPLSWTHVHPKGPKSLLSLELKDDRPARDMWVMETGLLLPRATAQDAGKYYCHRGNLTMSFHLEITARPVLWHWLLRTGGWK
# T2: CD19 endogenously expressed on Raji and NALM-6 cells (human, UniProt P15391 20-556)
# T2 construct: whole, on cells; also called CD19 on NALM-6 cells; CD19 on Raji cells
# T2 sequence (looked up): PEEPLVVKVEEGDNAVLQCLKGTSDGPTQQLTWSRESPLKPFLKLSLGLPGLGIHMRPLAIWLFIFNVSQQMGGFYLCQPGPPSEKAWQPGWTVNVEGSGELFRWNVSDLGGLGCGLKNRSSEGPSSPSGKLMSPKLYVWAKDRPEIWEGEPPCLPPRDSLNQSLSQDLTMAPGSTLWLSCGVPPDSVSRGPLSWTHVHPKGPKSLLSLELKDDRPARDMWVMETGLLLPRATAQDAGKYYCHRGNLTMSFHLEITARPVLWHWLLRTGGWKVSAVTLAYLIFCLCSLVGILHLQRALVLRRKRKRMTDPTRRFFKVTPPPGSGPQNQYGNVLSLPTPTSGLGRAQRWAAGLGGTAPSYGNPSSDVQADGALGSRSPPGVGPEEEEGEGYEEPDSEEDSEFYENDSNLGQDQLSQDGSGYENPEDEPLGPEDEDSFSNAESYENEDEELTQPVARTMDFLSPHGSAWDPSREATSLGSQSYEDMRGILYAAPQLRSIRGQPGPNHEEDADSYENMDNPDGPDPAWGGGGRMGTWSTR
# Assays:
# [1] = biological target: T1, soluble CD19-HSA fusion protein (CD19 …); assay: BLI (ForteBio Octet RED384), IgG on AHC sensors, 100 nM soluble CD19-HSA, 1:1 model
# [2] = biological target: T2, CD19 endogenously expressed on Raji and …; assay: flow cytometry, serial dilution on NALM-6 cells
Kd [1] [nM],koff [1] [s⁻¹],kon [1] [M⁻¹ s⁻¹],EC50 [2] [nM],Binder
20.8,0.00145,69800,0.27,"Antibody 15 (antibody, V domains shown, Human IgG produced in Adimab yeast, purified on Protein A; Has the VH and VL of #15 scFv; also called CD19 Antibody 15) VH: QVQLVESGGGVVQPGRSLRLSCAASGFTFSSYGMHWVRQAPGKGLEWVALIWYDGSNKYYADSVKGRFTISRDNSKNTLYLQMNSLRAEDTAVYYCAKPVEGLLRGFDYWGQGTLVTVSS VL: EIVLTQSPGTLSLSPGERATLSCRASQSVSSSYLAWYQQKPGQAPRLLIYGASRRATGIPDRFSGSGSGTDFTLTISRLEPEDFAVYYCQQAGIPPYTFGGGTKVEIK"
9.27,0.000218,23500,0.519,"Antibody 4 (antibody, V domains shown, Human IgG produced in Adimab yeast, purified on Protein A; Has the VH and VL of #4 scFv; also called CD19 Antibody 4) VH: QVQLVESGGGVVQPGRSLRLSCAASGFTFSSYGMHWVRQAPGKGLEWVALIWYDGSNKYYADSVKGRFTISRDNSKNTLYLQMNSLRAEDTAVYYCAKPVEGLLRGFDYWGQGTLVTVSS VL: EIVLTQSPGTLSLSPGERATLSCRASQSVSSSYLAWYQQKPGQAPRLLIYGASSRATGIPDRFSGSGSGTDFTLTISRLEPEDFAVYYCQQVDSLHPFTFGGGTKVEIK"
14.9,0.00105,70000,0.21,"Antibody 7 (antibody, V domains shown, Human IgG produced in Adimab yeast, purified on Protein A; Has the VH and VL of #7 scFv; also called CD19 Antibody 7) VH: QVQLVESGGGVVQPGRSLRLSCAASGFTFSSYGMHWVRQAPGKGLEWVALIWYDGSNKYYADSVKGRFTISRDNSKNTLYLQMNSLRAEDTAVYYCAKPVEGLLRGFDYWGQGTLVTVSS VL: EIVMTQSPGTLSLSPGERATLSCRASQSVSSSYLAWYQQKPGQAPRLLIYGASSRATGIPDRFSGSGSGTDFTLTISRLEPEDFAVYYCQQAGGVPPFTFGGGTKVEIK"

# Continued, binder first:
Binder,Kd [1] [nM],koff [1] [s⁻¹],kon [1] [M⁻¹ s⁻¹],EC50 [2] [nM]
"Antibody 6 (antibody, V domains shown, Human IgG produced in Adimab yeast, purified on Protein A; Has the VH and VL of #6 scFv; also called CD19 Antibody 6) VH: QVQLVESGGGVVQPGRSLRLSCAASGFTFSSYGMHWVRQAPGKGLEWVALIWYDGSNKYYADSVKGRFTISRDNSKNTLYLQMNSLRAEDTAVYYCAKPVEGLLRGFDYWGQGTLVTVSS VL: EIVLTQSPGTLSLSPGERATLSCRASQSVRSSYLAWYQQKPGQAPRLLIYGASSRATGIPDRFSGSGSGTDFTLTISRLEPEDFAVYYCQQAGVPPLTFGGGTKVEIK",6.4,0.000484,75600,0.18
"Antibody 5 (antibody, V domains shown, Human IgG produced in Adimab yeast, purified on Protein A; Has the VH and VL of #5 scFv; also called CD19 Antibody 5) VH: QVQLVESGGGVVQPGRSLRLSCAASGFTFSSYGMHWVRQAPGKGLEWVALIWYDGSNKYYADSVKGRFTISRDNSKNTLYLQMNSLRAEDTAVYYCAKPVEGLLRGFDYWGQGTLVTVSS VL: EIVLTQSPGTLSLSPGERATLSCRASQSVSSSYLAWYQQKPGQAPRLLIYGASSRATGIPDRFSGSGSGTDFTLTISRLEPEDFAVYYCQQAGGVPPLTFGGGTKVEIK",10.4,0.000785,75600,0.219
"Antibody 1 (antibody, V domains shown, Human IgG produced in Adimab yeast, purified on Protein A; Has the VH and VL of #1 scFv; also called CD19 Antibody 1) VH: QVQLVESGGGVVQPGRSLRLSCAASGFTFSSYGMHWVRQAPGKGLEWVALIWYDGSNKYYADSVKGRFTISRDNSKNTLYLQMNSLRAEDTAVYYCAKPVEGLLRGFDYWGQGTLVTVSS VL: EIVMTQSPGTLSLSPGERATLSCRASQSVSSSYLAWYQQKPGQAPRLLIYGASNRATGIPDRFSGSGSGTDFTLTISRLEPEDFAVYYCQQAGVFPFTFGGGTKVEIK",32.9,0.00176,53400,0.588
"Antibody 2 (antibody, V domains shown, Human IgG produced in Adimab yeast, purified on Protein A; also called CD19 Antibody 2) VH: QVQLVESGGGVVQPGRSLRLSCAASGFTFSSYGMHWVRQAPGKGLEWVALIWYDGSNKYYADSVKGRFTISRDNSKNTLYLQMNSLRAEDTAVYYCAKPVEGLLRGFDYWGQGTLVTVSS VL: EIVLTQSPGTLSLSPGERATLSCRASQSVSSSYLAWYQQKPGQAPRLLIYGASSRATGIPDRFSGSGSGTDFTLTISRLEPEDFAVYYCQQAGAVPITFGGGTKVEIK",9.01,0.000554,61500,0.314
